Results taken from the nanobody polyreactivity screen of Harvey et al. (2022).

Assay: yeast display, Sf9 membrane polyspecificity reagent, FACS + sequencing; frameworks hold sequencing errors
Procedure, shortened: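 Polyreactivity labels are assigned by the sorting gate from which each nanobody was recovered. The gates were low and high (top ~1%), set on anti-HA fluorescence for expression and streptavidin fluorescence for reagent binding. Before sorting, galactose-induced (36–48 hours) yeast display cells were stained for 1 hour at 4 °C with 10% biotinylated, detergent-solubilized Sf9 membrane reagent.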

Sequence | polyreactivity (PSR sort gate)
QVQLVESVGGLVQAGGSLRLSCAASGRIYAMGLYRPAPGKERELVAAISRGGSTYYADSVKGRFTISRDNAKNTVYLQMNSLKPEDSAVYYCARRYASTGYDYWGQGTQVTESS | high polyreactivity
QLQLVESGGRLVQAGGSLRLSCAATGFTFGGYAMGWYRQAPGKESELVARIRRSGGSTYYADSVKGRFTISRDNAKNTVYLQMTSLKPEDTAVYYCAAGYSRGQYRYNYWGQGTQVTVSS | high polyreactivity
QVQLVESGGGLVQAGGSLRLSSAASGFTFPAYTMGWSRQAPGKERELVAAITSSGGNTYYADSVKGRFTISRDNAKNTVYLQMNSLKPEDTAVYYCAADWDYPYDEAVSKDIDYDYWGQGTQVTVSS | low polyreactivity
QVQLVESGGGLVQAGGSLRLSCAASGRTFRRYTMGWYRQAPGKESELVATISSGGSTYADSVKGRFTISLDNAKNTVYLQMNSLKPEDTAVYYCAARYDVAWYSKRYSWGQGTQVTVSS | high polyreactivity
QVQLQGSGGGLVQAGGSLRLSCAASAYIFQNHPMGCNRQAPGKERELVAGIDNGTSTNYADSVNGRFTISRDNAKNTVYLQMNSLKPEDTAVYYCAAAGQADDTLGYWGQGTQVTVSS | low polyreactivity
QVQLEESGVGLVQAGGSLRLSCAASGSIYGYAMGWYRQSPGKQRELVASISSGGSTYYADSVKGRFTISRDNAKNSVYLQMNSLKPEDTAVYYCAARAYSYQAQSYYWGQGTQVTVSS | high polyreactivity
QVQRVESGGGLVQAGGSLRLSCAASGYILPRYAMGWYIQAPGKERELVAAITSGGITSYADSVKGRFTISRDNAKNTVYLQMNSLKPEDTAVYYCAADWYVIYDYWGQGTQVTVSS | low polyreactivity
QVQLVESGGGLVQAGGSLRLSCAASGLIFYRNAMGWYRQAPGKERELVAAISVSGGSTYYADSVKGRFTISRDNAKNTVYLQMNSLKPEDTAVYYCAAKTWRSRGLEMDYWGQGTQVTVSS | high polyreactivity
QVQLVESGGGLVQAGGSLRLSSAASGRIFYKYVMGWYRQATGKERELVATITSGGSTYYADSVKGRFTISRDNAKNTVYLQMNSLKPEDTAVFYCAARKYYSRAYDYWGQGTQVTVSS | high polyreactivity
QVQLVESGVGLVQAGGSLRLSCAPSGFTFGRYAMGWYRQAPGKEREFVASISRSGGSTNYADSVKGRFTISRDNAKNTVYLQMNSLKPEDTAVYYCARDSWLHYRWGYDYWGQGTQVTVSS | high polyreactivity
QVQLEESGGGLVQAGGSLRLSCAASGLTFAQNAMGWYRQAPGKEREMVAAITSSGGRTYYADSVKGRFTISRDNANNTVYLQMNSLKPEDTAVYDCNVRYYRYGYTYGYWGQGTQVTVSS | high polyreactivity
QVQLVESGGGLVQAGGSLRLSCAASGFIFKDNARGWYRQATGKEREFVASITASGGSTTYADSVKGRFTISRDTAKNTVYLQMTSLKPEDTAVYYCAARVGWNKRRYDYWGQGTQVTVSS | low polyreactivity
QVQLVESGGGLVQAGGSLRLSCAASGGTFTFYAMGWYRQATGKEMELVATINWSGGSTYYADSVKGRFTISRDNAKNTVYLQMNSLKPEDTAVYYCNAAWPYKSVEYWGQGTQVTVSS | low polyreactivity
QVQLVESGGGLVQAGGSLRLSCAASGSIFGPYVKGWYRQAPGTERELVASITSSGGSTYYADTVKGRFTISRDNAKNTVYIQMNSLKPEDTAVYYCNAVRFTPTNSHRYYWGQGTQVTVSS | high polyreactivity
QVQLVVSGGGLVQAGGSLRLSCAASGFIFVNYAMGWYRQAPGKDGELVAAISRGGGRTYYADSVKGRFTISRDNAKNTVYLQMNSLKPEDTAVYYCNARRLGYHQRYFWGQGTQVTVSS | high polyreactivity
QFHLVESVGGLFQAGGSLRLSSAASGRNFSIYAMGWYRQAPGKERELVAAISWSGGRTYYADSVKGRFTISRDTAKNTVYLQMNSLKPEDTAVYYCNAENGWADYYRSDYWGQGTQVTVSS | high polyreactivity

Sequence | polyreactivity (PSR sort gate)
QVQLVESGGGLVQAGGSLRLSCAASGSTFRPYAMGWYRQAPGKEMELVARMTGSGDSTYYADSVKGRFTISRDNAKNTVYLQMNSLKPEDTAVYYCNALYTSLRKYNYWGQGTQVTVSS | low polyreactivity
QVQLVESGGGLVQAGGSLRLSCAASGSIFVPYAMGWYRQAPGKERELVAGINWSSGRTYYADSVKGRFTISRDNAKNTVYLQMNSLKPEDTAVYYCAAEKYTTYSFYHVAYDYWGQGTQVTVSS | high polyreactivity
QVQLVESGGGLVQAGGSLRLSCAASGRTFRVYAMGWYRQAPWKERELVAAISGRGGRTYYADSVKGRFTISRDNAKNTVYLQMNSLKPEDTAVYYCTADVGVYHDDYWGQGTQVTVSS | high polyreactivity
QVQLVESGGGLVQAGGSLRLSCAASGFIFKGYAMGWYRQAPGKERELVAAISSGGSTNYADSVKGRFTISRDNAKNTVYLQMNSLKPEDTAVYYCAAGRYIRHYWYGYWGQGTQVTVSS | high polyreactivity
QVQLVDSGGGLVQAGGSLRLSCAASGSTFRLYAMGWYRQAPGKERALVAAITRGGITYYADSVKGRFTISRDNAKNTVYFQMNSLKPEDTAVYYCAATTFGPYALYPRYYYWGQGTQVTVSS | high polyreactivity
QVQLVESGGGLLQAGGSLRLSCAASGRILFSYAMGWYRQAPGKERELVATISSGGRTNYADSVKGRFTISRDNAKNTVYLQMNSLKPEDTAVYYCNTEYLVWYAYDYGGQGTQVTVSS | low polyreactivity
QVQLVESGGGLVQAGGSLRISCAASGSTFDVNAMGWYRQAPGKERELVAAISWNSGSTYYADSVKGRFTISRDNAKNTVYLQMNSLKPEDTAVYYCAATYGTGRRSKYGYWGQGTQVTVSS | high polyreactivity
QVQLVESGGGLVQAGGSLRLSCAASGRTFRVYAMGWYRQAPGKERELVASITNDGSTYADSVKGRFTISRDNAKNTVYLQMNSLKPEDTAVYFCAARFPQWRYSRRTGERFDYWGQGTQVTVSS | low polyreactivity
QVQLVESGGGLVQAGGSLRLSCAASGLIFWVYTMGWYRQAPGKERELVASISWNGGSTYYADSVKGRFTISRDNAKNTVYLQMNSLKPEDTAVYYCAAGARYVQRDYWGQGTQVTVSS | low polyreactivity
QVQLVESGGGLVQAVGSLRLSCAASGSTFWFNAMGWYRQAPGKERELVAAIPSRGGYTYYADSVKGRFTISRDNAKNTVYLQMNSLKPEDTAVYYCAADYRYSSRKVFHFDYWGQGTQVTVSS | low polyreactivity
QVQLVESGGGLVQAGGSLRLSCAASGRIFRPYAMGWYRQAPGKERELVAGITSSGGSTYYADSVKGRFTISRDNAKNTVYLQMNSLKPEDTAVYYCAADYGWGSGFEYDYWGQGTQVTVSS | low polyreactivity
QVQLVESGGGLVQAGGRLRLSCAASGSIFITYAMGWYRQAPGKEMELVAAIRDSGDRTYYADSVKGRFTISRDNAKNTVYLQMNSLKPEDTAVYYCNARWQEPLKYDYWGQGTQVTVSS | low polyreactivity
QVQLVESGGGLVQAGGSLRLSCAASGFIFLSYGMGWYRPAPGKERELVASITSDGGSTYYADSVKGRFTISRDNAKNTVYLQMNSLKPEDTAVYYCAADSVSPWYYGWYYRYRGYGYWGQGTQVTVSS | low polyreactivity
QVQLVESGVGLVQAGGSLRLSCAASGITFVDYGMGWYRQAPGKERELVSAISRSGGSTYYADSVKGRFTISRDNAKNTVYLQMNSLKPEDTAVYYCATVLSRVRNSDKYWGQVTQVTVSS | high polyreactivity
QVQLVESGGGLVQAGGSLRLSCAASGRIFARYTMGWYRQAPGKEREFVAGIRSSGGRTYYADSVKGRFTISRDNAKNTVYLQMNSLKPEDTAVYYCKAGGSWYFARYDYWGQGTLVTVSS | low polyreactivity
QVQLVESGGGLVQAGGSLRLSCAASGSTFEFNDMGWYRQAPGKERELVASIRHSDGSTYYADSVKGRFTISRDNAKNTVYLQMNSLKPEDTAVYYCNKAFQWSGGQVSYDYWGQGTQVTVSS | low polyreactivity
